Assay results reported in patent publication CN116917323A.

Assays:
[1] = biological target: T1, 人B7-H4 (细胞表面B7-H4) (human) (UniProt Q7Z7D3); assay: flow cytometry on HCC1569 cells
T1 sequence (looked up): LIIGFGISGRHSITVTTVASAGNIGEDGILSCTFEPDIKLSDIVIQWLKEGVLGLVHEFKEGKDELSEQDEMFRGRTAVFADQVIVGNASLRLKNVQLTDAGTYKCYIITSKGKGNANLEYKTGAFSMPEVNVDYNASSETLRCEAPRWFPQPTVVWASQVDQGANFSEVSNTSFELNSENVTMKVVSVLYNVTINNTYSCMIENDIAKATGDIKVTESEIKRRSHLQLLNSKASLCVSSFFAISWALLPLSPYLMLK

[2] = biological target: T2, 重组人B7-H4蛋白(R&D Systems#6576-B7-050) (human) (UniProt Q7Z7D3); assay: BLI (Octet), antibody on anti-human Fc sensor, recombinant human B7-H4 as analyte, 25 °C
T2 sequence (looked up): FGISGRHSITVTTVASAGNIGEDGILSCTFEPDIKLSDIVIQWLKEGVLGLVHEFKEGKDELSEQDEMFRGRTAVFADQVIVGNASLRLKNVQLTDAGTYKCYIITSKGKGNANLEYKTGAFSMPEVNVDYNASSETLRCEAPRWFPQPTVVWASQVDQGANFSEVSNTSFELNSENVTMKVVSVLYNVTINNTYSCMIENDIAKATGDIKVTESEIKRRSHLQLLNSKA

[3] = biological target: T1, 人B7-H4 (细胞表面B7-H4) (human); assay: flow cytometry on MX-1 cells

B1: 1D11抗体 (antibody, from another filing, V domains shown)
VH: QVQLQQSGAELVRPGTSVKMSCKASGYTFTSYWIGWAKQRPGHGFEWIGDIYPGGGYTNYNEKFKGKATLTADKSSSTAYMQFSSLTSEDSAIYYCARLDGSSYRGAMDSWGQGTSITVSS
VL: DIQMTQSPSSLSASLGGKVTITCKASQGFNKYVAWYQHKPGQCPRLLIHYTSTLQPGIPARFSGSGSGRDYSFSISNLEPEDSATYFCLQYGNLLYAFGGGTKLEIKR
In the case of B1, the EC50 [1] is reported as 3.44 nM, the K d, fold lower than that of B4-H4 2F9 [2] is reported as > 100 fold and the EC50 [3] is reported as 4.9 nM.
